The target in this assay is fibrin. In words: cell adhesion assay: HEK293 cells transfected with the CAR, 30 minutes on fibrin-coated plates, washed with PBS, adhered cells counted by Hoechst stain; reference control-CAR.

B1: fibrin-specific FIB2-CAR (PMC 1946, FIB2scfvCAR), expressed on transfected/transduced HEK293 cells (receptor)
chain: DIQLTQSPSSLSASVGDRVTITCRASQNIGVNLNWYQQRPGKGPKLLVSSTFSLQSGVPSRFSASGAGTNFTLTISSLQPEDYVTYYCQQSYSSPFTFGPGTKVDIKGGGGSGGGGSGGGGSEVQLVESGGGAVQPGRSLRLSCAASGVSFSNIGMHWVRQAPGKGLEWVALISSDGRHTHYADSVKGRFTISRDNSENTLYLQINGLRADDTAVYYCAKGLDTRARYMGKFYTFDYWGQGTLVTVSSASAIEVMYPPPYLDNEKSNGTIIHVKGKHLCPSPLFPGPSKPFWVLVVVGGVLACYSLLVTVAFIIFWVKRGRKKLLYIFKQPFMRPVQTTQEEDGCSCRFPEEEEGGCELRVKFSRSADAPAYQQGQNQLYNELNLGRREEYDVLDKRRGRDPEMGGKPRRKNPQEGLYNELQKDKMAEAYSEIGMKGERRRGKGHDGLYQGLSTATKDTYDALHMQALPPR
Take B1: the fold increase of cell adhesion to fibrin against the control-CAR construct came to 9.8 fold.

The values above are taken from patent publication EP4676945A2.
